This experiment concerns the target Methanocaldococcus jannaschii Bud32 (Methanocaldococcus jannaschii) (UniProt Q58530).

Methanocaldococcus jannaschii Bud32 (Methanocaldococcus jannaschii), sequence (Q58530 whole entry): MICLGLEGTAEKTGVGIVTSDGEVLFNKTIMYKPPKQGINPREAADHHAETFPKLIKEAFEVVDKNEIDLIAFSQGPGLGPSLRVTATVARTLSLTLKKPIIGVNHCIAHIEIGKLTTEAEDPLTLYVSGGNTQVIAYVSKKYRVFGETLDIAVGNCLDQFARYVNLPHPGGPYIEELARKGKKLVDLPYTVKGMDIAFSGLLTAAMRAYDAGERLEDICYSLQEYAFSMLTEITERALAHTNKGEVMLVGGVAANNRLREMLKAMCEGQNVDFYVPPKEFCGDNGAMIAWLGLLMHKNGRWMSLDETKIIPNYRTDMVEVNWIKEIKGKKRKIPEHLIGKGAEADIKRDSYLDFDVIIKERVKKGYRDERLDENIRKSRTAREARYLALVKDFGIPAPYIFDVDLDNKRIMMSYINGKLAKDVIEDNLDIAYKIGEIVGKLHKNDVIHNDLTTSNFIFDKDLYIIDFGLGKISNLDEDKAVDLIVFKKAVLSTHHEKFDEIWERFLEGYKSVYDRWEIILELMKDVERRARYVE

B1: Methanocaldococcus jannaschii Cgi121 (natural protein)
chain: MIIRGIRGARINNEIFNLGLKFQILNADVVATKKHVLHAINQAKTKKPIAKSFWMEILVRASGQRQIHEAIKIIGAKDGNVCLICEDEETFRKIYELIGGEIDDSVLEINEDKERLIREIFKIRGFGNVVERVLEKIALIELKKE
In the case of B1, the ATPase activity of mjBud32 (ADP Glo assay), potentiation by mjCgi121 worked out at 10 fold.
